Several values for one entry are separate records, joined by “and”; a condition that tells them apart may be missing. Equal entries are not always repeated.
Tests used:
[1] = test system: rats with acute myocardial infarction caused by left coronary artery ligation; assay: Echocardiography, rat acute myocardial infarction, long-term subcutaneous NRG at different frequencies (Example 2); assay type: in vivo, Wistar rats
Description: (§1) Established in the same way as the rat model of heart failure caused by coronary artery ligation in 5.1, Embodiment 1
All the experimental animals were randomly divided into groups upon coronary artery ligation. According to post-ligation survival, the rats were randomly divided into 4 groups by body weight: the excipient group (control group), the NRG30 μg/kgDay group, the NRG30 μg/kg/BlW group and the NRG30 μgkgDay*7+QW group. Administration began on the day following the animal model establishment of myocardial infarction. For the first three groups and for the fourth group on the first 7 days, the rats were given subcutaneous injection 3 times a day and weighed once a day. They took medicine by weight and the dose was 30 μg/kg/day. For the fourth group in the last four weeks, the rats were injected with NRG on one day per week, and the daily dose was 30 μg/kg.
(§2) After being anesthetized with 4% isoflurane, the rats were fixed onto the operating board in the left lateral recumbent position. The head of the rats was fixed in the breathing mask of the gaseous anesthesia machine, with isoflurane used for maintenance of anesthesia. After chest hair removal, the skin was disinfected with 75% alcohol and coated with a coupling agent. An echocardiography probe was used to detect any echo signal from the left ventricle of the rats. The left ventricular end-diastolic diameter and left ventricular end-systolic diameter (D) were measured. The left ventricular end-diastolic volume (EDV) and end-systolic volume (ESV) were calculated. Also, the ejection fraction (EF) value was found, EF−(EDV−ESV)/EDV*100%. The cardiac function of the rats was performed by echocardiography in the 1st, 2nd, 3rd and 5th weeks after the occurrence of myocardial infarction.

[2] = test system: rats with acute myocardial infarction caused by left coronary artery ligation; assay: Echocardiography, rat acute myocardial infarction, long-term subcutaneous NRG followed by withdrawal through dose reduction (Example 4); assay type: in vivo, Wistar rats
Description: as §1
The rats were randomly divided into groups and medicated upon coronary artery ligation. According to post-ligation survival, the rats were randomly divided into 2 groups by body weight. Subcutaneous injection was given 3 times a day, and the animals were weighed once a day. The animals were medicated by weight. Echocardiography was performed on day 10 after modeling. All the animals underwent echocardiography every 10 days, underwent echocardiography every week after dose reduction, and underwent echocardiography every 2 weeks after complete withdrawal. All the animals were medicated continuously till day 60, and then a three-week dose-reduction withdrawal plan was implemented: The administered dose was reduced to 15 μg/kg, 7.5 μg/kg and 3.75 μg/kg in the first, second and third week, respectively. The drug was completely withdrawn after three-week dose reduction to observe the clinical symptoms.
as §2, with “The” for “Also, the”, “EP=(EDV−ESV)/EDV*100%.” for “EF−(EDV−ESV)/EDV*100%. The cardiac function of the rats was performed by echocardiography in the 1st, 2nd, 3rd and 5th weeks after the occurrence of myocardial infarction.”
All experimental data were expressed in ±SD. GraphPad Prism6 was used for one-way ANOVA analysis. P<0.05 indicates a significant inter-group difference; P<0.01 indicates an extremely significant inter-group difference.

[3] = 30 μg/kg/Day sc, after 35 days of continuous administration
[4] = DAY 8, 30 μg/kg BIW sc, 3 times a day, 2 days a week × 5 weeks
[5] = DAY 8, 30 μg/kg Day*7 + QW sc, 3 times a day × 7 days, then 1 day/week × 4 weeks
[6] = DAY 8, 30 μg/kg/Day sc, 3 times a day × 35 days
[7] = DAY 15, 30 μg/kg BIW sc, 3 times a day, 2 days a week × 5 weeks
[8] = DAY 15, 30 μg/kg Day*7 + QW sc, 3 times a day × 7 days, then 1 day/week × 4 weeks
[9] = DAY 15, 30 μg/kg/Day sc, 3 times a day × 35 days
[10] = DAY 22, 30 μg/kg BIW sc, 3 times a day, 2 days a week × 5 weeks
[11] = DAY 22, 30 μg/kg Day*7 + QW sc, 3 times a day × 7 days, then 1 day/week × 4 weeks
[12] = DAY 22, 30 μg/kg/Day sc, 3 times a day × 35 days
[13] = DAY 36, 30 μg/kg BIW sc, 3 times a day, 2 days a week × 5 weeks
[14] = DAY 36, 30 μg/kg Day*7 + QW sc, 3 times a day × 7 days, then 1 day/week × 4 weeks
[15] = DAY 36, 30 μg/kg/Day sc, 3 times a day × 35 days
[16] = DAY 10, 30 μg/kg/Day sc, 3 times a day, continuous
[17] = DAY 30, 30 μg/kg/Day sc, 3 times a day, continuous
[18] = DAY 50, 30 μg/kg/Day sc, 3 times a day, continuous
[19] = DAY 60, 30 μg/kg/Day sc, 3 times a day, continuous
[20] = DAY 81, 30 μg/kg/Day sc × 60 days, then three weeks of dose reduction (15, 7.5, 3.75 μg/kg)
[21] = DAY 88, after complete withdrawal on day 81 (30 μg/kg/Day sc × 60 days + 3-week dose reduction)
[22] = DAY 102, after complete withdrawal on day 81 (30 μg/kg/Day sc × 60 days + 3-week dose reduction)
[23] = DAY 116, after complete withdrawal on day 81 (30 μg/kg/Day sc × 60 days + 3-week dose reduction)
[24] = DAY 143 (ninth week after withdrawal), after complete withdrawal on day 81

B1: NRG: fragment of the NRG-1β2 isomer, 177-237 amino acid fragment containing an EGF-like domain (SEQ ID NO: 1); developed by Zensun (protein, listed as Homo sapiens)
chain: SHLVKCAEKEKTFCVNGGECFMVKDLSNPSRYLCKCPNEFTGDRCQNYVMASFYKAEELYQ
EF value compared with the control group ([1]; 30 μg/kg/BIW sc, after 35 days): rising trend | EF value compared with the control group [1, 3]: significantly higher | LVEDd and LVEDs compared with the control group [1, 3]: significantly reduce | Cardiac function compared with the control group ([1]; 30 μg/kg/Day*7+QW sc, first 7 days of continuous administration): improved to some extent | EF [1, 4]: 50.9 ± 8.958% | LVEDd [1, 4]: 0.809 ± 0.045 cm | LVEDs [1, 4]: 0.625 ± 0.068 cm | EF [1, 5]: 50.9 ± 7.337% | LVEDd [1, 5]: 0.785 ± 0.045 cm | LVEDs [1, 5]: 0.607 ± 0.061 cm | EF [1, 6]: 52.2 ± 7.802% | LVEDd [1, 6]: 0.785 ± 0.046 cm | LVEDs [1, 6]: 0.601 ± 0.063 cm | EF [1, 7]: 48.9 ± 9.893% | LVEDd [1, 7]: 0.856 ± 0.065 cm | LVEDs [1, 7]: 0.671 ± 0.091 cm | EF [1, 8]: 47.1 ± 8.344% | LVEDd [1, 8]: 0.864 ± 0.054 cm | LVEDs [1, 8]: 0.686 ± 0.074 cm | EF [1, 9]: 50.3 ± 8.49% | LVEDd [1, 9]: 0.832 ± 0.054 cm | LVEDs [1, 9]: 0.646 ± 0.075 cm | EF [1, 10]: 47.1 ± 10.427% | LVEDd [1, 10]: 0.896 ± 0.074 cm | LVEDs [1, 10]: 0.711 ± 0.102 cm | EF [1, 11]: 44.7 ± 8.434% | LVEDd [1, 11]: 0.905 ± 0.062 cm | LVEDs [1, 11]: 0.729 ± 0.08 cm | EF [1, 12]: 49.5 ± 7.897% | LVEDd [1, 12]: 0.859 ± 0.057 cm | LVEDs [1, 12]: 0.670 ± 0.069 cm | EF [1, 13]: 45.2 ± 10.248% | LVEDd [1, 13]: 0.928±0.084 cm | LVEDs [1, 13]: 0.746 ± 0.110 cm | EF [1, 14]: 42.7±9.892% | LVEDd [1, 14]: 0.931±0.070 cm | LVEDs [1, 14]: 0.76 ± 0.097 cm | EF [1, 15]: 47.9±8.342% | LVEDd [1, 15]: 0.879±0.058 cm | LVEDs [1, 15]: 0.694±0.077 cm | LVEDd and LVEDs compared with the control group ([2]; 30 μg/kg/Day sc, 60 consecutive days): significantly reduced | EF value compared with the control group ([2]; 30 μg/kg/Day sc, after 60 days of continuous administration): increased significantly | EF [2, 16]: 50.5 ± 4.96 % | LVEDd [2, 16]: 0.821 ± 0.05 cm | LVEDs [2, 16]: 0.637 ± 0.06 cm | EF [2, 17]: 46.8 ± 6.37 % | LVEDd [2, 17]: 0.912 ± 0.06 cm | LVEDs [2, 17]: 0.725 ± 0.07 cm | EF [2, 18]: 44.4 ± 7.85 % | LVEDd [2, 18]: 0.934 ± 0.07 cm | LVEDs [2, 18]: 0.754 ± 0.09 cm | EF [2, 19]: 43.8±8.0% and 43.8 ± 8.04 % | LVEDd [2, 19]: 0.981±0.08 cm | LVEDs [2, 19]: 0.794±0.08 cm | EF [2, 20]: 42.3±11.2% | LVEDd [2, 20]: 0.981±0.08 cm and 0.981 ± 0.07 cm | LVEDs [2, 20]: 0.799±0.08 cm | EF [2, 21]: 39.3±12.7% and 39.3 ± 12.71 % | LVEDd [2, 21]: 0.994±0.08 cm | LVEDs [2, 21]: 0.826±0.10 cm | EF [2, 22]: 36.6 ± 7.69 % | LVEDd [2, 22]: 1.031 ± 0.07 cm | LVEDs [2, 22]: 0.872 ± 0.08 cm | EF [2, 23]: 33.3 ± 5.12 % | LVEDd [2, 23]: 1.054 ± 0.07 cm | LVEDs [2, 23]: 0.908 ± 0.08 cm | EF [2, 24]: 33.4±7.6% | LVEDd [2, 24]: 1.104±0.08 cm | LVEDs [2, 24]: 0.950±0.09 cm | Cardiac function, overall conclusion ([2]; a long time after withdrawal): significant improving effect on the cardiac function | EF value compared with the control group ([2]; nine weeks after withdrawal): still showed a rising trend | LVEDd and LVEDs compared with the control group ([2]; nine weeks after withdrawal): there remained a significant difference
